Measured values taken from publication PMC4753561.
Values joined by “and” are separate entries in the source; they are usually repeats but may differ in a detail not shown here. Identical values can stand only once. Like-named read-outs stand apart in the source and are kept apart here.

How the values were obtained:
[1] = target: Hepatitis B Virus core protein assembly domain (Cp149) dimer (Hepatitis B Virus); assay: resistive-pulse sensing
[2] = target: Hepatitis B Virus core protein assembly domain (Cp149) dimer (Hepatitis B Virus); assay: SEC
[3] = target: Hepatitis B Virus core protein assembly domain (Cp149) dimer (Hepatitis B Virus); assay: resistive-pulse sensing; remark: listed apart in the source

## Hepatitis B Virus core protein assembly domain (Cp149) dimer (domain or fragment)
[1]
  stoichiometry N: 90 subunit and 120 subunit
[2]
  pseudo-critical dimer concentration: 0.5 µM
[3]
  pseudo-critical dimer concentration: 0.5 µM
  stoichiometry N: 105 dimers and 77 dimers
